Laboratory results reported in US20210087281A1 (AGOMAB THERAPEUTICS, published 2021).

Experiments:
[1] = molecular target: T1, human MET-Fc (R&D Systems) (human, UniProt P08581 25-932); test: competition ELISA, hMET-Fc in solid phase, competitor 0.3 nM biotinylated hHGF
T1 construct: extracellular domain; bought chimeric protein; also called hMET; not shown: Fc portion of human IgG1
Method in brief: (§1)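 An ELISA format measured how well mAbs (0-120 nM) displaced N-terminus-biotinylated HGF from plate-bound receptor. Results are given as the concentration producing 50% competition and as IMAX, the saturating maximum percentage.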

[2] = molecular target: T2, human MET ECD (human, UniProt P08581 25-932); test: ELISA, MET ECD in solid phase, mAb 0-50 nM
T2 construct: range 1-932; recombinant ECD made by the applicants; the stated range begins at residue 1, so it includes the signal peptide of the entry; also called hMET; hMET ECD
T2 sequence (P08581 25-932 limits assumed, form in doubt): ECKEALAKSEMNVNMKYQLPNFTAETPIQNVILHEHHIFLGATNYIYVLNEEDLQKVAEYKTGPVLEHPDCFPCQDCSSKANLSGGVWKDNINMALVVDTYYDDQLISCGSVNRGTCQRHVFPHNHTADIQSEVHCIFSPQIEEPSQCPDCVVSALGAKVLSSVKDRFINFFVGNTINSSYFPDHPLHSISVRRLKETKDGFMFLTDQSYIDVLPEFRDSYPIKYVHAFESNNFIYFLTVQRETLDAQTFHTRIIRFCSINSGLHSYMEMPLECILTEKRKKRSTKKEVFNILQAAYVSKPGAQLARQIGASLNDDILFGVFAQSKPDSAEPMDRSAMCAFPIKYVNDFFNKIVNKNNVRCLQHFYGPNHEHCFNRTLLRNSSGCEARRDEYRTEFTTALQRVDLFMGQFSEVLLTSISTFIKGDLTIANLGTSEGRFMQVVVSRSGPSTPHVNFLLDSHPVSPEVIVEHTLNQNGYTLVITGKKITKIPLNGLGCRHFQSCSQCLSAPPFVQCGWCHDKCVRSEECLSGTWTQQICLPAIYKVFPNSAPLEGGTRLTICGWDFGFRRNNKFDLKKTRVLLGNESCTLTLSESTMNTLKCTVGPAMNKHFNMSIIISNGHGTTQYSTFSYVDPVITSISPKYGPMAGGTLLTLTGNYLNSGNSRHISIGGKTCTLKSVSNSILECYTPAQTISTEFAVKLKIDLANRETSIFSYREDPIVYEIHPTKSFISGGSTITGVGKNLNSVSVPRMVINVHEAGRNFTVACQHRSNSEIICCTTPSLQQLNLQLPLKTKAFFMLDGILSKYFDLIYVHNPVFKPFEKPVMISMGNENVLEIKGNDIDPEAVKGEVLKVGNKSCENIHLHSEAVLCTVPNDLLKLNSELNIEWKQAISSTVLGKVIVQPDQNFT
Experimental: Using human MET as a template, we mutagenized each of these residues in different permutations, generating a series of MET mutants that are fully human except for specific residues, which are llama. Next, we tested the affinity of selected SEMA-binding mAbs (71D6, 71C3, 71D4, 71A3, 71G2) and PSI-binding mAbs (76H10 and 71G3) for these MET mutants by ELISA. To this end, the various MET proteins were immobilized in solid phase (100 ng/well in a 96-well plate) and then exposed to increasing concentrations of antibodies (0-50 nM) solution. […] Wild-type human MET was used as positive control.
TABLE 18 The epitopes of MET responsible for agonistic antibody binding represent residues conserved among H. sapiens, M. musculus, R. norvegicus, M. fascicularis but not among the same species and L. glama. The relevance of residues conserved among human, mouse, rat, cynomolgus monkey but not llama MET for binding to agonistic mAbs was tested by ELISA. Wild-type (WT) or mutant (MT) human MET ECD was immobilized in solid phase and exposed to increasing concentrations of mAbs in solution. […] All binding values were normalized to the WT protein and are expressed as % binding (EMAX) compared to WT MET.

[3] = molecular target: T3, native mouse MET on living cells (mouse, UniProt P16056 25-1379); test: cell-based or functional assay
[4] = molecular target: T4, native human MET on living cells (human, UniProt P08581 25-1390); test: cell-based or functional assay
T4 sequence (P08581 25-1390): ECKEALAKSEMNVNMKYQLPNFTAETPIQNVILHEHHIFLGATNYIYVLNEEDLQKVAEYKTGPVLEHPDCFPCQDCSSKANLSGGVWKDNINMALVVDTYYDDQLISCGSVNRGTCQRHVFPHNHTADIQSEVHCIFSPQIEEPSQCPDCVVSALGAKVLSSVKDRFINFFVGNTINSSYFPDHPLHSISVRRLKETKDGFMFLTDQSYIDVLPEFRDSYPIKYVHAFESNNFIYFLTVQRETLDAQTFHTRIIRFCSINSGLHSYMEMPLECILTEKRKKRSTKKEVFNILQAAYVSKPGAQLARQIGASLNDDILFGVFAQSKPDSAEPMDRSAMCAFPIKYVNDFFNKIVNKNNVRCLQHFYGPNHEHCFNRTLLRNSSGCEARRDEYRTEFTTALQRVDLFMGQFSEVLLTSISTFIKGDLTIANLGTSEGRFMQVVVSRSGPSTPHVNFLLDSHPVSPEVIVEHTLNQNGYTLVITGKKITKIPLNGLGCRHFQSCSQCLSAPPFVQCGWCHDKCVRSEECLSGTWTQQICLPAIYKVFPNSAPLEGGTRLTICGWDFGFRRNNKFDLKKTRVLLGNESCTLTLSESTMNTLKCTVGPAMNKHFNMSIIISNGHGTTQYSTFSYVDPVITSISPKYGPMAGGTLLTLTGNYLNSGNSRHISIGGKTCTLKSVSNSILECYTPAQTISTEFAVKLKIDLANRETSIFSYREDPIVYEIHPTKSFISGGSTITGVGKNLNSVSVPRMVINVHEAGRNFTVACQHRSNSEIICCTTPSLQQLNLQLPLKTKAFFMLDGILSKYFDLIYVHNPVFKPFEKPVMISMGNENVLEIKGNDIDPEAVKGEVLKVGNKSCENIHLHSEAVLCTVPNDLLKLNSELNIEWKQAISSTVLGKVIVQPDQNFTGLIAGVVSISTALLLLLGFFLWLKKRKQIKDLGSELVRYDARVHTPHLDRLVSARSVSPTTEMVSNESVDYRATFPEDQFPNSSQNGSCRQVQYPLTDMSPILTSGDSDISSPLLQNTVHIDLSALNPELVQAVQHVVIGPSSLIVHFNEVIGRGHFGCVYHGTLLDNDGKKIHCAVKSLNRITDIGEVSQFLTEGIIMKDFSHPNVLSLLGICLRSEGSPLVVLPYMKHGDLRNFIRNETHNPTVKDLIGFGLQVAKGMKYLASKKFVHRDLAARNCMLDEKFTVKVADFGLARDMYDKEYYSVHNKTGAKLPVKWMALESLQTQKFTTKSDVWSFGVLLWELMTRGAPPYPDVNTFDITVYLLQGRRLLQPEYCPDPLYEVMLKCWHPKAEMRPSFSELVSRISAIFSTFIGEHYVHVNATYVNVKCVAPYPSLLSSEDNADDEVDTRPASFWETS

[5] = molecular target: T3, native mouse MET on living cells; test: cell-based or functional assay; remark: listed apart in the source
[6] = molecular target: T4, native human MET on living cells; test: cell-based or functional assay; remark: listed apart in the source
[7] = molecular target: human MET ECD mutant D (mutations 1, 2) (human) (UniProt P08581); test: ELISA, MET ECD in solid phase, mAb 0-50 nM
[8] = molecular target: human MET ECD mutant A (mutations 1, 2, 3) (human) (UniProt P08581); test: ELISA, MET ECD in solid phase, mAb 0-50 nM
[9] = molecular target: human MET ECD mutant H (mutations 2, 4) (human) (UniProt P08581); test: ELISA, MET ECD in solid phase, mAb 0-50 nM
[10] = molecular target: human MET ECD mutant E (mutations 2, 3, 4) (human) (UniProt P08581); test: ELISA, MET ECD in solid phase, mAb 0-50 nM
[11] = molecular target: T3, native mouse MET on living cells; test: flow cytometry, MLP29 cells
Method in brief: (§2)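 Detection used a phycoerythrin-labelled anti-human IgG1 secondary and flow cytometry, measuring binding of chimeric antibodies to native MET on live A549 (human) or MLP29 (mouse) cells. Positive controls were a mouse anti-human MET and a goat anti-mouse MET antibody, each with a PE-labelled secondary.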

[12] = molecular target: T3, native mouse MET on living cells; test: cell-based or functional assay; remark: listed apart in the source
[13] = molecular target: T4, native human MET on living cells; test: cell-based or functional assay; remark: listed apart in the source
[14] = molecular target: T5, mouse MET ECD (mouse, UniProt P16056 25-931); test: ELISA, MET ECD in solid phase, mAb 0-20 nM
T5 construct: range 1-931; recombinant ECD made by the applicants; the stated range begins at residue 1; also called mMET; mMET ECD
Method in brief: (§3)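 Solid-phase ELISA; analyte = protein A-purified chimeric llama/human IgG1 from transient mammalian transfection, titrated in solution onto immobilized MET ECD.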

[15] = molecular target: T2, human MET ECD; test: ELISA, MET ECD in solid phase, mAb 0-20 nM
Method in brief: as §3

[16] = molecular target: T3, native mouse MET on living cells; test: cell-based or functional assay; remark: listed apart in the source
[17] = molecular target: T4, native human MET on living cells; test: cell-based or functional assay; remark: listed apart in the source
[18] = molecular target: T4, native human MET on living cells; test: flow cytometry, A549 cells
Method in brief: as §2

[19] = molecular target: T6, mouse MET-Fc (R&D Systems) (mouse, UniProt P16056 25-929, limits assumed); test: competition ELISA, mMET-Fc in solid phase, competitor 0.3 nM biotinylated mHGF
T6 construct: bought chimeric protein; also called mMET; not shown: Fc part
Method in brief: as §1

[20] = molecular target: human MET ECD mutant I (mutations 6, 7, 8) (human) (UniProt P08581); test: ELISA, MET ECD in solid phase, mAb 0-50 nM
[21] = molecular target: human MET ECD mutant J (mutations 6, 7) (human) (UniProt P08581); test: ELISA, MET ECD in solid phase, mAb 0-50 nM

T1 sequence (P08581 25-932): as the sequence (P08581 25-932 limits assumed, form in doubt) above

B1: 71G2 chimeric llama-human IgG1 mAb (antibody, V domains shown)
VH: EVQLQESGGGLVQPGGSLRLSCAASGFTFSIYDMSWVRQAPGKGLEWVSTINSDGSSTSYVDSVKGRFTISRDNAKNTLYLQMNSLKPEDTAVYYCAKVYGSTWDVGPMGYGMDYWGKGTLVTVSS
VL: SSALTQPSALSVSLGQTARITCQGGSLGSSYAHWYQQKPGQAPVLVIYGDDSRPSGIPERFSGSSSGGTATLTISGAQAEDEDDYYCQSTDSSGNTVFGGGTRLTVL
notes: llama VH on human IgG1 CH1-CH2-CH3, llama VL on human lambda CL
For B1, the IC50 [1] was 0.23 nM, the IMAX [1] was 97.8% and the “% binding (EMAX) compared to WT MET” value [2] was 100 % WT MET ECD. For the same binder, the “protection from staurosporine, viability EC50, MLP29 cells” value [3] was 1.99 nM, the “protection from staurosporine, viability EMAX, MLP29 cells” value [3] was 58.3% and the “protection from staurosporine, viability EC50, MCF10A cells” value [4] was 1.06 nM. The “protection from staurosporine, viability EMAX, MCF10A cells” value [4] was 64.8%, the “phospho-MET ELISA EC50, MLP29 cells” value [5] was 0.25 nM and the “phospho-MET ELISA EMAX (% HGF activity), MLP29 cells” value [5] was 110%. The “phospho-MET ELISA EC50, A549 cells” value [6] was 0.37 nM, the “phospho-MET ELISA EMAX (% HGF activity), A549 cells” value [6] was 101% and the % binding (EMAX) compared to WT MET [7] was 114 % WT MET ECD. It also gave a % binding (EMAX) compared to WT MET [8] of 92.1 % WT MET ECD, a % binding (EMAX) compared to WT MET [9] of 40.2 % WT MET ECD and a % binding (EMAX) compared to WT MET [10] of 41.4 % WT MET ECD. The EC50 [11] was 0.688 nM, the EMAX [11] was 130 % relative to control and the “branches per spheroid, MLP29 cells, 0.5 nM” value [12] was 34 branches. The “branches per spheroid, MLP29 cells, 2.5 nM” value [12] was 46.3 branches, the “branches per spheroid, MLP29 cells, 12.5 nM” value [12] was 45 branches and the “branches per spheroid, LOC cells, 0.5 nM” value [13] was 25.3 branches. The “branches per spheroid, LOC cells, 2.5 nM” value [13] was 29.3 branches, the “branches per spheroid, LOC cells, 12.5 nM” value [13] was 31.7 branches and the EC50 [14] was 0.101 nM. The “EMAX (OD450)” value [14] was 3.17 AU, the EC50 [15] was 0.112 nM and the “EMAX (OD450)” value [15] was 3.09 AU. For the same binder, the “scatter score 0-4, MLP29, 0.001 nM” value [16] was 0 score, the “scatter score 0-4, MLP29, 0.004 nM” value [16] was 0 score and the “scatter score 0-4, MLP29, 0.012 nM” value [16] was 1 score. For the same binder, the “scatter score 0-4, MLP29, 0.037 nM” value [16] was 2 score, the “scatter score 0-4, MLP29, 0.111 nM” value [16] was 4 score and the “scatter score 0-4, MLP29, 0.333 nM” value [16] was 4 score. For the same binder, the “scatter score 0-4, MLP29, 1.000 nM” value [16] was 4 score, the “scatter score 0-4, MLP29, 3.000 nM” value [16] was 4 score and the “scatter score 0-4, MLP29, 9.000 nM” value [16] was 4 score. The “scatter score 0-4, HPAF-II, 0.001 nM” value [17] was 0 score, the “scatter score 0-4, HPAF-II, 0.004 nM” value [17] was 1 score and the “scatter score 0-4, HPAF-II, 0.012 nM” value [17] was 2 score. The “scatter score 0-4, HPAF-II, 0.037 nM” value [17] was 3 score, the “scatter score 0-4, HPAF-II, 0.111 nM” value [17] was 4 score and the “scatter score 0-4, HPAF-II, 0.333 nM” value [17] was 4 score. For the same binder, the “scatter score 0-4, HPAF-II, 1.000 nM” value [17] was 4 score, the “scatter score 0-4, HPAF-II, 3.000 nM” value [17] was 4 score and the “scatter score 0-4, HPAF-II, 9.000 nM” value [17] was 4 score. For the same binder, the EC50 [18] was 0.604 nM, the EMAX [18] was 144 % relative to control and the IC50 [19] was 0.26 nM. The IMAX [19] was 91.9%.

B2: 76H10 chimeric llama-human IgG1 mAb (antibody, V domains shown)
VH: QLQLVESGGGLVQPGGSLRVSCTASGFTFNTYYMTWVRQAPGKGLEWVSDINSGGGTYYADSVKGRFTISRDNAKNTLYLQMNSLKPEDTALYYCVRVRIWPVGYDYWGQGTQVTVSS
VL: QAVVTQEPSLSVSPGGTVTLTCGLSSGSVTTSNYPGWFQQTPGQAPRTLIYNTNNRHSGVPSRFSGSISGNKAALTITGAQPEDEADYYCSLYTGSYTTVFGGGTHLTVL
notes: as for B1
B2 was tested, and the IC50 [1] was 1.86 nM, the IMAX [1] was 64.2% and the “protection from staurosporine, viability EC50, MLP29 cells” value [3] was > 32 nM. For the same binder, the “protection from staurosporine, viability EMAX, MLP29 cells” value [3] was 27.2%, the “protection from staurosporine, viability EC50, MCF10A cells” value [4] was > 32 nM and the “protection from staurosporine, viability EMAX, MCF10A cells” value [4] was 22.8%. For the same binder, the “phospho-MET ELISA EC50, MLP29 cells” value [5] was 2.91 nM, the “phospho-MET ELISA EMAX (% HGF activity), MLP29 cells” value [5] was 64.1% and the “phospho-MET ELISA EC50, A549 cells” value [6] was 1.77 nM. The “phospho-MET ELISA EMAX (% HGF activity), A549 cells” value [6] was 61.2%, the % binding (EMAX) compared to WT MET [20] was 100 % WT MET ECD and the % binding (EMAX) compared to WT MET [21] was 89 % WT MET ECD. For the same binder, the EC50 [11] was 1.6 nM, the EMAX [11] was 124 % relative to control and the “branches per spheroid, MLP29 cells, 0.5 nM” value [12] was 10.7 branches. For the same binder, the “branches per spheroid, MLP29 cells, 2.5 nM” value [12] was 14.3 branches, the “branches per spheroid, MLP29 cells, 12.5 nM” value [12] was 24.7 branches and the “branches per spheroid, LOC cells, 0.5 nM” value [13] was 7.3 branches. For the same binder, the “branches per spheroid, LOC cells, 2.5 nM” value [13] was 11.7 branches, the “branches per spheroid, LOC cells, 12.5 nM” value [13] was 16.7 branches and the EC50 [14] was 0.062 nM. The “EMAX (OD450)” value [14] was 2.66 AU, the EC50 [15] was 0.09 nM and the “EMAX (OD450)” value [15] was 2.67 AU. The “scatter score 0-4, MLP29, 0.001 nM” value [16] was 0 score, the “scatter score 0-4, MLP29, 0.004 nM” value [16] was 0 score and the “scatter score 0-4, MLP29, 0.012 nM” value [16] was 0 score. The “scatter score 0-4, MLP29, 0.037 nM” value [16] was 0 score, the “scatter score 0-4, MLP29, 0.111 nM” value [16] was 0 score and the “scatter score 0-4, MLP29, 0.333 nM” value [16] was 0 score. For the same binder, the “scatter score 0-4, MLP29, 1.000 nM” value [16] was 1 score, the “scatter score 0-4, MLP29, 3.000 nM” value [16] was 2 score and the “scatter score 0-4, MLP29, 9.000 nM” value [16] was 3 score. For the same binder, the “scatter score 0-4, HPAF-II, 0.001 nM” value [17] was 0 score, the “scatter score 0-4, HPAF-II, 0.004 nM” value [17] was 0 score and the “scatter score 0-4, HPAF-II, 0.012 nM” value [17] was 0 score. For the same binder, the “scatter score 0-4, HPAF-II, 0.037 nM” value [17] was 0 score, the “scatter score 0-4, HPAF-II, 0.111 nM” value [17] was 0 score and the “scatter score 0-4, HPAF-II, 0.333 nM” value [17] was 0 score. The “scatter score 0-4, HPAF-II, 1.000 nM” value [17] was 1 score, the “scatter score 0-4, HPAF-II, 3.000 nM” value [17] was 2 score and the “scatter score 0-4, HPAF-II, 9.000 nM” value [17] was 3 score. For the same binder, the EC50 [18] was 2.35 nM, the EMAX [18] was 130 % relative to control and the IC50 [19] was 2.01 nM. It also gave an IMAX [19] of 62.7%.
